Measured values reported in patent US20230075633A1 (SHANDONG BOAN BIOTECHNOLOGY, published 2023).

Columns and labels:
human CD3 [1] = molecular target: T1, human CD3 (human, UniProt P07766 23-207); test: cell-based or functional assay
human CEA [2] = molecular target: T2, human CEA (human, UniProt P06731 35-702); test: cell-based or functional assay
T2 sequence (looked up): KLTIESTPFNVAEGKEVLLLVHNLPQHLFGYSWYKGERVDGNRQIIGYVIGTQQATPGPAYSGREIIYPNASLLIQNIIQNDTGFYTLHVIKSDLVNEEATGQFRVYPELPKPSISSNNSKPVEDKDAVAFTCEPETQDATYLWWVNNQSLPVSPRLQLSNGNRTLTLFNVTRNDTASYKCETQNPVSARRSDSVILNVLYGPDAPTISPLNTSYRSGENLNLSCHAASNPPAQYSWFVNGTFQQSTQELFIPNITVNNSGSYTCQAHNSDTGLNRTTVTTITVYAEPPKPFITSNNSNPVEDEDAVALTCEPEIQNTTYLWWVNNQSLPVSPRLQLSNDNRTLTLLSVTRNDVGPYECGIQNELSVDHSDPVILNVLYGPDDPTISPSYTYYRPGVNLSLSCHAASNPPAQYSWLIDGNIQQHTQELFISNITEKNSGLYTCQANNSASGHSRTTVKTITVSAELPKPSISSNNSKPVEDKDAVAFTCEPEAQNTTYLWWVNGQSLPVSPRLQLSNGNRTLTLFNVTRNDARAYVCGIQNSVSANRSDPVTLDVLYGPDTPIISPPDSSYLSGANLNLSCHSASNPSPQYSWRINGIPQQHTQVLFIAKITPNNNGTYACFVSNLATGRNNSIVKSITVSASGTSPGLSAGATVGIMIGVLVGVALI

[3] = molecular target: T3, Cynomolgus monkey CD3 protein (cynomolgus monkey, UniProt Q95LI5 22-117); test: ELISA on cynomolgus monkey CD3 protein, curve fit
T3 sequence (looked up): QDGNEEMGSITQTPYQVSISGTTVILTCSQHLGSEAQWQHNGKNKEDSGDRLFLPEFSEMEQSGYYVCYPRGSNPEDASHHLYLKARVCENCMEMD

human CD3 [4] = molecular target: T1, human CD3; test: flow cytometry on Jurkat cells
Experimental: (§1) Mean fluorescence intensity (MFI) was determined by Flow cytometry. […] Mean fluorescence intensity (MFI) was determined by Flow cytometry.

human CEA [5] = molecular target: T2, human CEA; test: cell-based or functional assay; remark: listed apart in the source
human CEA [6] = molecular target: T2, human CEA; test: cell-based or functional assay; remark: listed apart in the source
human CEA [7] = molecular target: T2, human CEA; test: cell-based or functional assay; remark: listed apart in the source
human CD3 [8] = molecular target: T1, human CD3; test: flow cytometry on human PBMC (ND 12)
Experimental: as §1

T1 sequence (P07766 23-207): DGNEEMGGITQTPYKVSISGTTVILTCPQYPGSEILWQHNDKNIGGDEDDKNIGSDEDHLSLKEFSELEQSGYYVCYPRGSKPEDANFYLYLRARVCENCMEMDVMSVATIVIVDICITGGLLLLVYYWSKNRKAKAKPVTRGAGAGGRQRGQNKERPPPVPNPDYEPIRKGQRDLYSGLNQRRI

NFAT-luciferase in Jurkat cells: Bottom (human CD3 [1]): 2830 | NFAT-luciferase in Jurkat cells: LogEC50 (human CD3 [1]): -0.154 | NFAT-luciferase in Jurkat cells: Span (human CD3 [1]): 17200 | NFAT-luciferase in Jurkat cells: Top (human CD3 [1]): 20000 | Bottom (best-fit) [3]: 0.00678 | LogEC50 [3]: -1.75 | Span (best-fit) [3]: 4.09 | Top (best-fit) [3]: 4.1 | EC50 (human CD3 [4]): 113 nM | cytolysis of KATO-III cells by PBMC: EC50 (human CEA [5]): 0.132 nM | cytolysis of LS174T cells by PBMC: EC50 (human CEA [5]): 0.0003 nM | cytolysis of MKN-45 cells by PBMC: EC50 (human CEA [5]): 0.0003 nM | lysis of KATO III cells by PBMC: Bottom (human CEA [6]): 58.1 | lysis of KATO III cells by PBMC: LogEC50 (human CEA [6]): -0.194 | lysis of KATO III cells by PBMC: Span (human CEA [6]): 36.2 | lysis of KATO III cells by PBMC: Top (human CEA [6]): 94.3 | lysis of LS-174T cells by PBMC: Bottom (human CEA [7]): 12.6 | lysis of LS-174T cells by PBMC: LogEC50 (human CEA [7]): -2.18 | lysis of LS-174T cells by PBMC: Span (human CEA [7]): 91.8 | lysis of LS-174T cells by PBMC: Top (human CEA [7]): 104 | EC50 (human CD3 [8]): 81 nM
B1: CEA/CD3OPT1a3b2b1 BsAb (bispecific antibody, V domains shown)
VH 1: EVQLVESGGGLVQPGGSLRLSCAASGFNIKDTYMHWVRQAPGKGLEWVARIDPAQGNTKYADSVKGRFTISADTSKNTAYLQMNSLRAEDTAVYYCAPFGYYVSDYAMAYWGQGTLVTVSS
VL 1: DIQLTQSPSSLSASVGDRVTITCRAGESVDIFGVGFLHWYQQKPGKAPKLLIYRASNLESGVPSRFSGSGSRTDFTLTISSLQPEDFATYYCQQTNEDPYTFGQGTKVEIK
VH 2: EVQLVESGGGLVKPGGSLKLSCAASGFTFSTYAMNWVRQAPGKGLEWVARIRSKYNNYATTYADSVKDRFTISRDDSKNTAYLQMNNLRTEDTAVYYCVRHGNWGNSYISYWAYWGQGTTVTVSS
VL 2: not shown
notes: also called CEA/CD3-1a3b2b1-BsAb; Lead CEA/CD3; copies: 2 + 2 + 2 + 2
killing of LS-174T cells by PBMC at E:T ratio of 5:1 (human CEA [2]): 20%
